Patent US20080201790A1, “Method and product for regulating cell responsiveness to external signals” (priority 1993, published 2008)

Target: GST-Ras^V12(GTPγS) agarose (UniProt P01112)
Test: GST-Ras^V12 agarose pull-down from COS cell lysate, anti-MEKK immunoblot

fold binding relative to GST-Ras^V12(GDP): > 5 fold
B1: MEKK1 (protein encoded by p-MEKK1, transiently expressed in COS cells) (enzyme)
chain: MVTAVPAVFSKLVTMLNASGSTHFTRMRRRLMAIADEVEIAEVIQLGVEDTVDGHQDSLQAVAPTSCLENSSLEHTVHREKTGKGLSATRLSASSEDISDRLAGVSVGLPSSTTTEQPKPAVQTKGRPHSQCLNSSPLSHAQLMFPAPSAPCSSAPSVPDISKHRPQAFVPCKIPSASPQTQRKFSLQFQRNCSEHRDSDQLSPVFTQSRPPPSSNIHRPKPSRPVPGSTSKLGDATKSSMTLDLGSASRCDDSFGGGGNSGNAVIPSDETVFTPVEDKCRLDVNTELNSSIEDLLEASMPSSDTTVTFKSEVAVLSPEKAENDDTYKDDVNHNQKCKEKMEAEEEEALAIAMAMSASQDALPIVPQLQVENGEDIIIIQQDTPETLPGHTKAKQPYREDAEWLKGQQIGLGAFSSCYQAQDVGTGTLMAVKQVTYVRNTSSEQEEVVEALREEIRMMGHLNHPNIIRMLGATCEKSNYNLFIEWMAGGSVAHLLSKYGAFKESVVINYTEQLLRGLSYLHENQIIHRDVKGANLLIDSTGQRLRIADFGAAARLASKGTGAGEFQGQLLGTIAFMAPEVLRGQQYGRSCDVWSVGCAIIEMACAKPPWNAEKHSNHLALIFKIASATTAPSIPSHLSPGLRDVAVRCLELQPQDRPPSRELLKHPVFRTTW
